From patent publication US20260109763A1 (DENALI THERAPEUTICS, published 2026)
Like-named read-outs stand apart in the source and are kept apart here.

B1: human PILRA G78 extracellular domain (recombinant hPILRA ECD) (receptor)
chain: QPSGSTGSGPSYLYGVTQPKHLSASMGGSVEIPFSFYYPWELATAPDVRISWRRGHFHGQSFYSTRPPSIHKDYVNRLFLNWTEGQKSGFLRISNLQKQDQSVYFCRVELDTRSSGRQQWQSIEGTKLSITQAVTTTTQRPSSMTTTWRLSSTTTTTGLRVTQGKRRSDSWHISLETA
notes: also called hPILRA G78
B2: Anti-PILRA antibody clone 35 (antibody, V domains shown)
VH: EVQLVQSGAEVKKPGASVKVSCKASGYTFTEYYMYWVRQAPGQGLELIGRIDPEDGGTDYVEKFKNRATLTADTSTSTAYLELSSLRSEDTAVYFCASTIRGTVFVYWGQGTLVTVSS
VL: DIQMTQSPSSLSASVGDRVTITCRPSEDIYNGLAWYQQKPGKSPKLLIYNANSLHTGVPSRFSGSGSGTDYTLTISSLQPEDFATYFCQQYYDYPLTFGQGTKVEIK
notes: Humanized; also called Ab.35
B3: PILRB binding positive control antibody (antibody, human IgG1, kappa, L234A L235A, V domains shown)
VH: QVQLQESGPGLVKPSGTLSLTCAVSGGSISSNHWWSWVRQPPGKGLEWIGEIYHYGTTDYNPSLQSRVTISVDKSKNQFSLKLTSVTAADTAVYFCARGLRDYYYYMDVWGKGTTVTVSS
VL: DIQMTQSPSSLSASVGDRVTITCRASQTISSYLNWYQQKPGKAPKLLIYAASSLQSGVPSRFSGSGFGTDFTLTISSLQPEDFATYYCQQSYSIPLTFGGGTKVEIKR
B4: Anti-PILRA antibody clone 2 (antibody, human IgG1, kappa, L234A L235A, V domains shown)
VH: EVQLVESGGGLVQPGRSLRLSCAVSGFTFDDYAMHWVRQAPGKGLEWVSGFSWNSGSIGYPDSVKGRFTISRDNAKNSLYLQMNSLRAEDTAFYYCAKDKSISAAGRFDYWGQGTLVTVSS
VL: DIQMTQSPSSLSASVGDRVTITCQASRRINNYLNWYQQKPGKAPKLLIYDASNLETGVPSRFTGSGSGTDFTLTISSLQPEDIATYYCQQYDNLPLTFGGGTKVEIKR
notes: also called Ab; Clone 2; Ab.2

Tests used:
[1] = molecular target: T1, hNPDC1(35-181) (human, UniProt Q9NQX5 35-181); experiment: SPR (Biacore 8K): ligand injected over hPILRA ECD (300 nM) held by an anti-PILRA antibody captured on anti-human Fab; panel Ligand binding permitted, antibody not named
T1 construct: range 35-181; also called neural proliferation differentiation and control protein 1
T1 sequence (looked up): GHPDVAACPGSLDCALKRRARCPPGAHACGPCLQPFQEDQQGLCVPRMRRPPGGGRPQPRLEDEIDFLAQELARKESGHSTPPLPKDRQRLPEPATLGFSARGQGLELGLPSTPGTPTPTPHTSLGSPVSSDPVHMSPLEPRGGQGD

[2] = molecular target: T2, hPANP(76-178) (human, UniProt Q8IYJ0 76-178); experiment: as above
T2 construct: range 76-178; also called PIANP; PILRA-associated neural protein
T2 sequence (looked up): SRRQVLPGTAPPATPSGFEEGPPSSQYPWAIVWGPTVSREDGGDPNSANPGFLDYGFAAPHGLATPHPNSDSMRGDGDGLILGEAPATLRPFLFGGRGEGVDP

[3] = molecular target: B1; experiment: SPR
[4] = molecular target: T3, human PILRA R78 extracellular domain (recombinant) (human, UniProt Q9UKJ1 20-197); experiment: SPR
T3 construct: also called hPILRA R78
Target sequence in this assay (Q9UKJ1 20-197 limits assumed): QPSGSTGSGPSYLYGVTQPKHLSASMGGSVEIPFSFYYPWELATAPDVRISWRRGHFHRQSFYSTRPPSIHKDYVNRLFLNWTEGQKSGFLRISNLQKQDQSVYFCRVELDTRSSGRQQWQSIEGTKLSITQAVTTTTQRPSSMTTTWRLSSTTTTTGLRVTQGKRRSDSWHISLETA

[5] = molecular target: T4, human PILRB extracellular domain (recombinant) (human, UniProt Q9UKJ0 20-191); experiment: SPR
T4 construct: also called hPILRB

[6] = molecular target: T5, cynomolgus monkey PILRA extracellular domain (recombinant) (cynomolgus monkey); experiment: SPR
T5 construct: also called cynoPILRA; Cyno PILRA

[7] = molecular target: T6, human PILRA G78 on cells (human, UniProt Q9UKJ1 20-303); experiment: cell-based or functional assay
Target sequence in this assay (Q9UKJ1 20-303 R78G limits assumed): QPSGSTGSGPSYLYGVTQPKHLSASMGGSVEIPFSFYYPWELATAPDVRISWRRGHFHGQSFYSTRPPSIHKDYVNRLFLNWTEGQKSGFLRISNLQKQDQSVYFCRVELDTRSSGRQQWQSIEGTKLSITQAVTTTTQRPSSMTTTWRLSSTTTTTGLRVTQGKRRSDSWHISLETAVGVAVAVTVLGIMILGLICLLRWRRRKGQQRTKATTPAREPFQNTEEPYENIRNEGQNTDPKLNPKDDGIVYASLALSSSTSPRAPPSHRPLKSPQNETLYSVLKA

[8] = molecular target: T7, human PILRA R78 on cells (human, UniProt Q9UKJ1 20-303); experiment: cell-based or functional assay
Target sequence in this assay (Q9UKJ1 20-303 limits assumed): as the sequence (Q9UKJ1 20-303 R78G limits assumed) above, with G59R counted along it

[9] = molecular target: T6, human PILRA G78 on cells; experiment: flow cytometry on HEK293 cells expressing hPILRA G78
Target sequence in this assay (Q9UKJ1 20-303 R78G limits assumed): as the sequence (Q9UKJ1 20-303 R78G limits assumed) above

[10] = molecular target: B1; experiment: SPR, Biacore 8K; hPILRA ECD; antibody with wild-type Fc
Procedure: (§1) Antibodies were captured on Biacore™ Series S CM5 sensor chips immobilized with mouse anti-human Fab (human Fab capture kit from GE Healthcare) followed by injections of serial 3-fold dilutions of recombinant ECD reagents at a flow rate of 30 μL/min. Each sample was analyzed using a 3-minute association followed by a 10-minute dissociation. After each injection, the sensor chip was regenerated using a 5 0 mM glycine pH2.0 regeneration buffer. A 1:1 Languir model of simultaneous fitting of kₒₙ and koff was used for kinetics analysis.
Characterization for binding affinities of the humanized antibodies to hPILRA ECD were measured by SPR using a Biacore 8K instrument (Table 7).

[11] = molecular target: T7, human PILRA R78 on cells; experiment: flow cytometry on PILRA R78 expressing HEK293 cells (FIG. 1F)
Procedure: (§2) PILRA G78 or R78 overexpressing HEK293 cells were stained with NucBlue Live cell stain for 30 mins at RT. […] Cell lines were run in duplicate to account for intra-variability, for a total of N=3. The same protocol was used for CHO-K1 cells expressing hPILRA G78.

[12] = molecular target: T6, human PILRA G78 on cells; experiment: flow cytometry (MFI), CHO-K1 cells expressing hPILRA G78, Alexa Fluor 647 anti-human IgG
Procedure: as §2

[13] = molecular target: T8, human PILRB on cells (human, UniProt Q9UKJ0 20-227); experiment: flow cytometry on hPILRB-DAP12 OE HEK293 cells
T8 construct: Expressed on CHO-K1 cells, or together with DAP12 on HEK293 cells (hPILRB-DAP12 OE HEK293); also called hPILRB; hPILRB-DAP12
Procedure: Human PILRB-DAP12 OE HEK293 cells were stained with NucBlue Live cell stain for 30 mins at RT. […] Cell lines were run in duplicates to account for intra-variability, for a total of N=3.

[14] = molecular target: T6, human PILRA G78 on cells; experiment: cell-based or functional assay; remark: listed apart in the source
Target sequence in this assay (Q9UKJ1 20-303 R78G limits assumed): as above

[15] = molecular target: T4, human PILRB extracellular domain …; experiment: SPR, Biacore 8K, recombinant ECD
Procedure: as §1

[16] = molecular target: T6, human PILRA G78 on cells; experiment: flow cytometry on HEK293 cells expressing hPILRA G78; remark: listed apart in the source
Target sequence in this assay (Q9UKJ1 20-303 R78G limits assumed): as above
Procedure: Parental HEK293 cells were labeled with NucBlue Live ReadyProbes Reagent for 30 mins. […] Antibody binding to the cells was detected by FACS and median fluorescence intensity (MFI) was derived from data analysis performed with the FLOJO software (FIGS. 1A-1C).

[17] = molecular target: B1; experiment: SPR, Biacore 8K; antibody captured via anti-human Fab, recombinant ECD injected; 1:1 fit;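 further: CM5 sensor chip, ECD analyte in threefold dilution series at 30 µL/min, 3 min association and 10 min dissociation, kon and koff fitted simultaneously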
Procedure: as §1

[18] = molecular target: T3, human PILRA R78 extracellular domain …; experiment: as above
Procedure: as §1

[19] = molecular target: T5, cynomolgus monkey PILRA extracellular …; experiment: as above
Procedure: as §1

[20] = molecular target: T7, human PILRA R78 on cells; experiment: flow cytometry on PILRA R78 expressing HEK293 cells (FIG. 1F); flow cytometry titration on HEK293 cells overexpressing PILRA R78
Procedure: as §2

T5 sequence (chain, as listed by the source limits assumed): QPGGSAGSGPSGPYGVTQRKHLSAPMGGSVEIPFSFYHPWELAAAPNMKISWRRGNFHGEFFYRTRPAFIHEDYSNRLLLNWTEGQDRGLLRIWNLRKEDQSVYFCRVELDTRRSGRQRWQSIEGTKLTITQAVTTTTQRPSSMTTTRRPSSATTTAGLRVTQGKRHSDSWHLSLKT
T4 sequence (Q9UKJ0 20-191 limits assumed): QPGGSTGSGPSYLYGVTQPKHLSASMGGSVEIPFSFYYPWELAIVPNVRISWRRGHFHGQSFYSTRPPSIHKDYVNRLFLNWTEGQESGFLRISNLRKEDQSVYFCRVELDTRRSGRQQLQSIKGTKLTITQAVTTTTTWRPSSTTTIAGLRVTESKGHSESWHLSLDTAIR
T8 sequence (Q9UKJ0 20-227 limits assumed): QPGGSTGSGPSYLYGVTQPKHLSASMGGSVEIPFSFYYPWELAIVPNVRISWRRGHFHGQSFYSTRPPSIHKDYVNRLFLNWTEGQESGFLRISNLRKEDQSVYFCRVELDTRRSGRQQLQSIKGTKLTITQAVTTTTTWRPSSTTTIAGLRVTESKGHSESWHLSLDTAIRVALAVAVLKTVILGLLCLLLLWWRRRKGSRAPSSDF

B1
binding result [1]: binds
binding result [2]: binds

B2
Kd [3]: 1.4 nM
Kd [4]: 25 nM
Kd [5]: 150 nM
Kd [6]: 5.3 nM
pSTAT3 S727 induction, EC50 (nM) [7]: 23 nM
pSTAT3 S727 induction, Fold Over Background [7]: 28.9 fold
pSTAT3 Y705 induction, EC50 (nM) [7]: 11.4 nM
pSTAT3 Y705 induction, Fold Over Background [7]: 35.5 fold
pSTAT3 S727 induction, EC50 (nM) [8]: 10.6 nM
pSTAT3 S727 induction, Fold Over Background [8]: 30.1 fold
pSTAT3 Y705 induction, EC50 (nM) [8]: 6.19 nM
pSTAT3 Y705 induction, Fold Over Background [8]: 41 fold
EC50 [9]: 12.8 nM
Kd [10]: 1.71 nM
EC50 [11]: 3.1 nM
EC50 (read off the curve) [12]: ~10 nM

B3
EC50 [13]: 1.2 nM

B4
pSTAT3 Y705 induction, EC50 (nM) [14]: 1.45 nM
pSTAT3 Y705 induction, Fold Over Background [14]: 16 fold
binding result [15]: no binding
EC50 [16]: 12.5 nM
Kd [17]: 0.69 nM
Kd [18]: 270 nM
Kd [19]: 1.7 nM
EC50 [20]: 5.1 nM
